Data from patent publication US6960559.
Each block holds one substance with its values, some of them ahead of it.

Columns and labels:
cbz-FAF[125I]Y-NH2 = system: T1, cbz-FAF[125I]Y-NH2
T1 sequence: FAFY

[1] = molecular target: rat CNS myelin (spinal cord myelin membrane fraction); test: cell-based or functional assay
[2] = molecular target: 250 kD CNS myelin associated inhibitory protein from rat CNS myelin (rat); test: solid phase radioimmunoassay on liposomes with gel-extracted protein, 125I goat anti-mouse, background subtracted
[3] = molecular target: 35 kD CNS myelin associated inhibitory protein from rat CNS myelin (rat); test: as above
[4] = molecular target: rat CNS myelin (spinal cord myelin membrane fraction); test: solid phase radioimmunoassay, antigen-coated wells, hybridoma supernatant, 125I goat anti-mouse, background subtracted
[5] = molecular target: rat PNS myelin (sciatic nerve myelin membrane fraction); test: as above
[6] = molecular target: rat CNS myelin, trypsin-treated; test: as above
[7] = molecular target: CNS myelin protein liposomes (total rat CNS myelin protein reconstituted in lipid vesicles); test: cell-based or functional assay
[8] = molecular target: 250 kD CNS myelin associated inhibitory protein from rat CNS myelin (rat); test: cell-based or functional assay
[9] = molecular target: 35 kD CNS myelin associated inhibitory protein from rat CNS myelin (rat); test: cell-based or functional assay

Chain of tissue-type plasminogen activator (tPA) (P00750 36-562): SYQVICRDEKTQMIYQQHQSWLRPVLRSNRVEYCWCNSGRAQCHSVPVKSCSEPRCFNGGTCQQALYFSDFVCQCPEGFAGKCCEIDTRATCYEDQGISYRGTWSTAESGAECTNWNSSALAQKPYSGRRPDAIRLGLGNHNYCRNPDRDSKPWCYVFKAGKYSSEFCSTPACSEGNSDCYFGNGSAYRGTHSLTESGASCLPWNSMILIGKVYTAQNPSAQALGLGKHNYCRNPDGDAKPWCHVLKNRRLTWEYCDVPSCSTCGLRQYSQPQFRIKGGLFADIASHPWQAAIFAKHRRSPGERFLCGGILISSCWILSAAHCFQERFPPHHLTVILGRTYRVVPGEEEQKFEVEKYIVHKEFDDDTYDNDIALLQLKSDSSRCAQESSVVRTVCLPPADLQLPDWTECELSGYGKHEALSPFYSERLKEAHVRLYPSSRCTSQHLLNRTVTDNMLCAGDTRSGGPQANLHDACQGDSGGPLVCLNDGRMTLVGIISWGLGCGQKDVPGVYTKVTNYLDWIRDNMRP

Substance: urokinase (uPA)
- Amount necessary to degrade 50% of substrate in 30 min (cbz-FAF[125I]Y-NH2): > 100 µg

Substance: tissue-type plasminogen activator (tPA)
- Amount necessary to degrade 50% of substrate in 30 min (cbz-FAF[125I]Y-NH2): > 100 µg

Substance: collagenase
- Amount necessary to degrade 50% of substrate in 30 min (cbz-FAF[125I]Y-NH2): 3 µg

- 3H-Thymidine Incorporation (%) of 3T3 cells on CNS myelin preincubated with C6 PM (untreated CNS myelin: 30) [1]: 83%
- 3T3 Cell Spreading (%) on CNS myelin preincubated with C6 PM (untreated CNS myelin: 15) [1]: 52%
Substance: C6 plasma membrane associated metalloendoprotease (rat C6 glioblastoma cells) (enzyme)

Substance: C6 plasma membrane associated metalloendoprotease (rat C6 glioblastoma cells)
- Amount necessary to degrade 50% of substrate in 30 min [µg], total C6 PM protein (cbz-FAF[125I]Y-NH2): 1.5 µg
- cbz-FAF[125I]Y-NH2 degradation by the plasma membrane fraction (5 µg) (cbz-FAF[125I]Y-NH2): 2.7 nmol/min

Substance: trypsin
- Amount necessary to degrade 50% of substrate in 30 min (cbz-FAF[125I]Y-NH2): 0.3 µg

Substance: cathepsin D
- Amount necessary to degrade 50% of substrate in 30 min [µg], pH 4.0 (cbz-FAF[125I]Y-NH2): 0.005 µg
- Amount necessary to degrade 50% of substrate in 30 min [µg], pH 7.4 (cbz-FAF[125I]Y-NH2): > 100 µg

- Amount of Antibody Bound (cpm of 125I-Labeled Goat Anti-Mouse) [2]: 250 cpm
- Amount of Antibody Bound (cpm of 125I-Labeled Goat Anti-Mouse) [3]: 350 cpm
- Amount of Antibody Bound (cpm of 125I-Labeled Goat Anti-Mouse) [4]: 550 cpm
- Amount of Antibody Bound (cpm of 125I-Labeled Goat Anti-Mouse) [5]: 80 cpm
- Amount of Antibody Bound (cpm of 125I-Labeled Goat Anti-Mouse) [6]: 25 cpm
- 3T3 Spreading (µm^2) on liposomes of IN-1-immunoprecipitated myelin protein, Protocol 1 [1]: 218 µm^2
- 3T3 Spreading (µm^2) on liposomes of IN-1-immunoprecipitated myelin protein, Protocol 2 [1]: 215 µm^2
- 3T3 spreading value on CNS lipos. preadsorbed with IN-1 (no antibody: 1.11) [7]: 2030 µm^2
- % inhibition of 3T3 spreading on CNS lipos. preadsorbed with IN-1 (no antibody: 45) [7]: 10%
- % inhibition of C6 spreading on CNS lipos. preadsorbed with IN-1, 0.3 mM 1,10-phenanthroline (no antibody: 46) [7]: 11%
- C6 spreading value on CNS lipos. preadsorbed with IN-1, 0.3 mM 1,10-phenanthroline (no antibody: 1.35) [7]: 2250 µm^2
- 3T3 Spreading (µm^2) on 250 kD liposomes made from IN-1-precipitated protein, Protocol 2 [8]: 245 µm^2
- 3T3 Spreading (µm^2) on 35 kD liposomes made from IN-1-precipitated protein, Protocol 2 [9]: 270 µm^2
Substance: monoclonal antibody IN-1
